Experimental data as given in article PMC8218686.

Tested on: T1, YhjC-His6 (Shigella flexneri (serotype 5a M90T?)), ORF:c5ce7ff9
T1 sequence: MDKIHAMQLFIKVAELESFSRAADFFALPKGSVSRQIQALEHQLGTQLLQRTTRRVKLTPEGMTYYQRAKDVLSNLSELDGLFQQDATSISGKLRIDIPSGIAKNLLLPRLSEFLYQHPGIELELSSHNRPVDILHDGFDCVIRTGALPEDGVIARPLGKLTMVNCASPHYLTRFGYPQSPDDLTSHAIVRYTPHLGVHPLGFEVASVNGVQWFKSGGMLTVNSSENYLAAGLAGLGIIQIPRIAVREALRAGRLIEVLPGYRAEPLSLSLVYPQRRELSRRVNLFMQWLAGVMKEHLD
Assay: EMSA
Conditions: 20 mM Tris-HCl pH 7.5, 50 mM KCl, 1 mM EDTA, 1 mM DTT, 5% glycerol

For “GGTTATAGTCCCTTTCAGTGCAAATACTTAGCTTGTTGCACAGAGAAATAGAAGCTGCATAAGCTCTTTCTTCAAAAAATGTAAATAAAGTTAAATATAGGAAAAATTACTTAATCTATCTTAATAACGGAAAGATTTTGTATACAATCACTGTTACAGAAATTTCTTAGTTACTCTGTAAACACTAAATATAGTTTGGTATATTCTGTTGAATTTATGATGGATATGGGACATAAAAACAAAATAGATATAAAGGTTCGCTTGCATAAC (double strand) [virF promoter (PvirF)]”, which binding is on record?
The binding was “binds”.
